# In patent US20240261333A1, “NOVEL TARGETS FOR ENHANCING ANTI-TUMOR IMMUNITY” (THE BROAD INSTITUTE, INC., priority 2021, published 2024):
# Tests used:
# [1] = target: HUWE1 (human) (UniProt Q7Z6Z7); experiment: co-IP, IgG control, lysate of cells with C-FLAG B3GNT2; mass spectrometry
# [2] = target: DNAJC3 (human) (UniProt Q13217); experiment: as above
# [3] = target: SAMM50 (human) (UniProt Q9Y512); experiment: as above
# [4] = target: C1orf68 (human) (UniProt Q5T750); experiment: as above
# [5] = target: PUM1 (human) (UniProt Q14671); experiment: as above
# [6] = target: KRT6B (human) (UniProt P04259); experiment: as above
# [7] = target: HADHB (human) (UniProt P55084); experiment: as above
# [8] = target: RPL10 (human) (UniProt P27635); experiment: as above
# [9] = target: PRRC2A (human) (UniProt P48634); experiment: as above
# Chain of PRRC2A (human) (P48634 whole entry): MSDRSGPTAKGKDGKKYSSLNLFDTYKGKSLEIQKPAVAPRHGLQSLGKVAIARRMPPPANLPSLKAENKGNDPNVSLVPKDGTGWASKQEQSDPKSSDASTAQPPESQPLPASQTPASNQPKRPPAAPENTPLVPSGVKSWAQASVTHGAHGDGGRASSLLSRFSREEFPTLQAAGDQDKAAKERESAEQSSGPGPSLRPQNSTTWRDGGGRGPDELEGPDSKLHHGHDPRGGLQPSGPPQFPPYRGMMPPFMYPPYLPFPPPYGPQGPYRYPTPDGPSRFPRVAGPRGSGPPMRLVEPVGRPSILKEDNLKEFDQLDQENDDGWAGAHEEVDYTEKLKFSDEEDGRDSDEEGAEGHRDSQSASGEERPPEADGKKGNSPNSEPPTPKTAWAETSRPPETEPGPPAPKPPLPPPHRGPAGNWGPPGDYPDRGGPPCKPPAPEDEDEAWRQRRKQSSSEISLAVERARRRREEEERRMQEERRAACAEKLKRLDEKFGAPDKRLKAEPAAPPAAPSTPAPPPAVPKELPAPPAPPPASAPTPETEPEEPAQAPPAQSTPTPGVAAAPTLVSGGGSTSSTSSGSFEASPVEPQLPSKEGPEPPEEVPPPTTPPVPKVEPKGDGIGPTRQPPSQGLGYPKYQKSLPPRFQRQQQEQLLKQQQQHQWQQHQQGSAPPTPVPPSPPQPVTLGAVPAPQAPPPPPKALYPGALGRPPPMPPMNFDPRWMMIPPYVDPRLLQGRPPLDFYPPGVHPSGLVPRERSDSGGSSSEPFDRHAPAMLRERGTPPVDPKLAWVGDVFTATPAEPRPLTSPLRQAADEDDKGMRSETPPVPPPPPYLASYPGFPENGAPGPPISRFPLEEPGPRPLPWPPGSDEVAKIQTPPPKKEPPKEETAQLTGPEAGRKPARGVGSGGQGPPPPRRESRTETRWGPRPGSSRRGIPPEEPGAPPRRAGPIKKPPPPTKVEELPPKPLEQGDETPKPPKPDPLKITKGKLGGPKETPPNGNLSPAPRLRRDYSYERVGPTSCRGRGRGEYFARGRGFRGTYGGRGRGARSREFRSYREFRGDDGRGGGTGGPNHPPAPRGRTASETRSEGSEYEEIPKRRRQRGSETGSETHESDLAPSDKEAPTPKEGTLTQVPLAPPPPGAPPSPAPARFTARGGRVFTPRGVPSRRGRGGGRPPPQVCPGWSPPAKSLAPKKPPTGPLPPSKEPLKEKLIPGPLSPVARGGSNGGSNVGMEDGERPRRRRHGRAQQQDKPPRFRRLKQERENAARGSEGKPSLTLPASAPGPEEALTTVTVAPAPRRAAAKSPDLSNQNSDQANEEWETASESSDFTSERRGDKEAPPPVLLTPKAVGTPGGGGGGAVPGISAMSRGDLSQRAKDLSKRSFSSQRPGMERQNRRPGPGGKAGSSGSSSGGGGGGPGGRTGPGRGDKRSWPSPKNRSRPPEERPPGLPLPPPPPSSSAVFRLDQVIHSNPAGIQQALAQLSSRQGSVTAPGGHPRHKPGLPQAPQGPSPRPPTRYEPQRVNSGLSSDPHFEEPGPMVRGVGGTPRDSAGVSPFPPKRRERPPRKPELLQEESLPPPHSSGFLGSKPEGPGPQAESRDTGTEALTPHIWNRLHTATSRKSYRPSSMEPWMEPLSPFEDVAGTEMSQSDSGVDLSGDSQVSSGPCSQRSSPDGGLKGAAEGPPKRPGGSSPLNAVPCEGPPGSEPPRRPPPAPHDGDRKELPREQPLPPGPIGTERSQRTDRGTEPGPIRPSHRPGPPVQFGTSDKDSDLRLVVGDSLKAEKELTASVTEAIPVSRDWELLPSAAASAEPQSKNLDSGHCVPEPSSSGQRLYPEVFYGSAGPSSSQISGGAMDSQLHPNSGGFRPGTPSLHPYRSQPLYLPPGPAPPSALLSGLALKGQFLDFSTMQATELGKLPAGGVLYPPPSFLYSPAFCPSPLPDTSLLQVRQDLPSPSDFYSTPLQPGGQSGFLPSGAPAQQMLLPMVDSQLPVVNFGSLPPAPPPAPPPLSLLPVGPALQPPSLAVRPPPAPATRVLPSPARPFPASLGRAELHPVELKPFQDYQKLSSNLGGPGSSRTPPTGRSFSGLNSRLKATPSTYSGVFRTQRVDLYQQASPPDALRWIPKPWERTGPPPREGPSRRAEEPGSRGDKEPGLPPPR
# [10] = target: ARPC4 (human) (UniProt P59998); experiment: as above
# [11] = target: CSE1L (human) (UniProt P55060); experiment: as above
# Chain of CSE1L (human) (P55060 other isoform, or with tags, fused parts or gaps limits assumed): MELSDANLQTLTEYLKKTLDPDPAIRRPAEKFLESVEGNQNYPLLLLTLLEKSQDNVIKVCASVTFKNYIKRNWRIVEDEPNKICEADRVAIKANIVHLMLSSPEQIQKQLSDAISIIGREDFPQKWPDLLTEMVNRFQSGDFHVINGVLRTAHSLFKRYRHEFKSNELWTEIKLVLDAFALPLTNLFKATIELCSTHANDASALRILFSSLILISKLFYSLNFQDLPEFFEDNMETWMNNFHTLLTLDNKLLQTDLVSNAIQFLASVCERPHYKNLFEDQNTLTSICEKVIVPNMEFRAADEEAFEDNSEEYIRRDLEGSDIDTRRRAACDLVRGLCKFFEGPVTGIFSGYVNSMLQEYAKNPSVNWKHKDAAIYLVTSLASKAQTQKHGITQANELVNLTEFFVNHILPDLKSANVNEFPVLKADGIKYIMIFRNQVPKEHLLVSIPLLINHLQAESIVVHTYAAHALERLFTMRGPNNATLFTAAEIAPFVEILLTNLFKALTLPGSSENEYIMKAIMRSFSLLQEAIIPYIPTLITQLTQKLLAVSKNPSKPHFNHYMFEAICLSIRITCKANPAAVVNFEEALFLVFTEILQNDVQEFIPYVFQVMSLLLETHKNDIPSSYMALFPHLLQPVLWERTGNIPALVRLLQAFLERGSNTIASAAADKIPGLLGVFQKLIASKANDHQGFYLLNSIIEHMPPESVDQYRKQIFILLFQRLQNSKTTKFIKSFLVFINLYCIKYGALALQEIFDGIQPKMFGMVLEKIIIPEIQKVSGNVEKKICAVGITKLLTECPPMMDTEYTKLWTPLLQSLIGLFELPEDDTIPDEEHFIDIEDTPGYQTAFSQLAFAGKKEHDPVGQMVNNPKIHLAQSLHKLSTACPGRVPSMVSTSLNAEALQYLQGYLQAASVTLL
# [12] = target: PRBP1 (human) (UniProt P26599); experiment: as above
# [13] = target: RPS28 (human) (UniProt P62857); experiment: as above
# [14] = target: RPS3 (human) (UniProt P23396); experiment: as above
# [15] = target: RPL13 (human) (UniProt P26373); experiment: as above
# [16] = target: COPA (human) (UniProt P53621); experiment: co-IP with anti-FLAG, N-FLAG B3GNT2, mass spectrometry
# [17] = target: RHOT2 (human) (UniProt Q8IXI1); experiment: as above
# [18] = target: EMILIN1 (human) (UniProt Q9Y6C2); experiment: as above
# [19] = target: PPFIBP1 (human) (UniProt Q86W92); experiment: as above
# [20] = target: XPOT (human) (UniProt O43592); experiment: as above
# Chain of XPOT (human) (O43592 whole entry): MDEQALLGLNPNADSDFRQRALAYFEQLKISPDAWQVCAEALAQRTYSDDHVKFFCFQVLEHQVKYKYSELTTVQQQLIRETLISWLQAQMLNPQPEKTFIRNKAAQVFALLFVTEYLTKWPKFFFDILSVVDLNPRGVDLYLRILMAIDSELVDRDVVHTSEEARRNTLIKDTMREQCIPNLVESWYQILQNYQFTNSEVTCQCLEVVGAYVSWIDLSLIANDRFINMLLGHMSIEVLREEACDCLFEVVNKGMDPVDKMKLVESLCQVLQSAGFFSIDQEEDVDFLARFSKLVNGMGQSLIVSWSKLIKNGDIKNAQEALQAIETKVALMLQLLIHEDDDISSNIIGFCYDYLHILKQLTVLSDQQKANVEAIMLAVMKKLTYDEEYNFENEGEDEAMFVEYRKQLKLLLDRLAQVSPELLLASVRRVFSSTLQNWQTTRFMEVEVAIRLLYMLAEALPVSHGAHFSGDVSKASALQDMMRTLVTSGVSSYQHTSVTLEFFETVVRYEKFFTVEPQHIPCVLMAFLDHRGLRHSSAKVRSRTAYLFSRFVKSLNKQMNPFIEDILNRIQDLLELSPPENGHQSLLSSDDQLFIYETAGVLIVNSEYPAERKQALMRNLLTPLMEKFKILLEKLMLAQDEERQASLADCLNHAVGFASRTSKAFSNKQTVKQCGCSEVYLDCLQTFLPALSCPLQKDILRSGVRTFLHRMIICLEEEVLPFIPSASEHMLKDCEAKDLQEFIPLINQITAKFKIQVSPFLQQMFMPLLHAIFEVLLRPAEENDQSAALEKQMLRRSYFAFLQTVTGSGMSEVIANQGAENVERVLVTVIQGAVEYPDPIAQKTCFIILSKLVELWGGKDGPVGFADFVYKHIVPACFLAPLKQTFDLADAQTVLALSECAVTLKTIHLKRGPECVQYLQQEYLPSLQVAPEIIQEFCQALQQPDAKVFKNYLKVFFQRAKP
# [21] = target: SERPINB3 (human) (UniProt P29508); experiment: as above
# [22] = target: GSN (human) (UniProt P06396); experiment: as above
# [23] = target: PSMB5 (human) (UniProt P28074); experiment: as above
# [24] = target: RPL7 (human) (UniProt P18124); experiment: as above
# [25] = target: PSMA3 (human) (UniProt P25788); experiment: as above
# Chain of PSMA3 (human) (P25788 2-255 limits assumed): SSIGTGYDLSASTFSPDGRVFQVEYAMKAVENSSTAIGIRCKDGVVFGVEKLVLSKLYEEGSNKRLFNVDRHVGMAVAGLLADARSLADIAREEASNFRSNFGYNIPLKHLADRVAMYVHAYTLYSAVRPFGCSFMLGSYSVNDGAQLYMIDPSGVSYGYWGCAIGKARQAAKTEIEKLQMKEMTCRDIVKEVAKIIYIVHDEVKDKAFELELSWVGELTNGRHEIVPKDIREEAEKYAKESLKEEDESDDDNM
# [26] = target: RPL17 (human) (UniProt P18621); experiment: as above
# [27] = target: RPL28 (human) (UniProt P46779); experiment: as above
# [28] = target: MAP4 (human) (UniProt P27816); experiment: as above
# [29] = target: RPL8 (human) (UniProt P62917); experiment: as above
# [30] = target: RACK1 (human) (UniProt P63244); experiment: as above
# [31] = target: HNRNPH1 (human) (UniProt P31943); experiment: as above
# [32] = target: RPS27A (human) (UniProt P62979); experiment: as above
# [33] = target: MMS19 (human) (UniProt Q96T76); experiment: as above
# [34] = target: DDX1 (human) (UniProt Q92499); experiment: as above
# Chain of DDX1 (human) (Q92499 whole entry): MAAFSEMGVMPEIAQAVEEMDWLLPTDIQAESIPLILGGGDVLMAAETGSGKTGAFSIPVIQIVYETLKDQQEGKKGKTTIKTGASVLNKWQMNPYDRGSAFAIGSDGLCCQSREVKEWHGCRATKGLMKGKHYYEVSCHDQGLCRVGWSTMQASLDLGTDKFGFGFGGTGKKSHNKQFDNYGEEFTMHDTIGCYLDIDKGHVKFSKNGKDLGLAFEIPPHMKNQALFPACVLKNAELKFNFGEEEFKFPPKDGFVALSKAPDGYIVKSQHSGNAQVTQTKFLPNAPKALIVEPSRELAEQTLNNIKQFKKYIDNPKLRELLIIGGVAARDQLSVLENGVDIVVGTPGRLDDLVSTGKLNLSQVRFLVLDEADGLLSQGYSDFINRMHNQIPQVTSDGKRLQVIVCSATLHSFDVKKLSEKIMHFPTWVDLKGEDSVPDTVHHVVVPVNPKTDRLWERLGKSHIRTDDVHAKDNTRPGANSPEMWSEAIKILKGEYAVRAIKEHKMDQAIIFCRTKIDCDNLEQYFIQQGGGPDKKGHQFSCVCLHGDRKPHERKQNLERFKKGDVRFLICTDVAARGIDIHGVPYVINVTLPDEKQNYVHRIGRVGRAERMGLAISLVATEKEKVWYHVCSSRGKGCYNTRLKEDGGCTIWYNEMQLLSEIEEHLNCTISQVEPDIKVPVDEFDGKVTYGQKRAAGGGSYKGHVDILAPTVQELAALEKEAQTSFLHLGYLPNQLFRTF
# [35] = target: LUC7L3 (human) (UniProt O95232); experiment: as above
substance,measurement,setting,value
IgG control (Millipore Sigma 12-371) (antibody),co-IP mass spectrometry count,[1],0
same,co-IP mass spectrometry count,[2],0
same,co-IP mass spectrometry count,[3],0
same,co-IP mass spectrometry count,[4],4
same,co-IP mass spectrometry count,[5],0
same,co-IP mass spectrometry count,[6],295
same,co-IP mass spectrometry count,[7],0
same,co-IP mass spectrometry count,[8],3
same,co-IP mass spectrometry count,[9],3
same,co-IP mass spectrometry count,[10],0
same,co-IP mass spectrometry count,[11],0
same,co-IP mass spectrometry count,[12],6
same,co-IP mass spectrometry count,[13],0
same,co-IP mass spectrometry count,[14],17
same,co-IP mass spectrometry count,[15],8
N-terminal FLAG tagged B3GNT2 (from UniProt Q9NY97 1-397) (enzyme),"co-IP/MS count, N-term FLAG",[16],2
same,co-IP mass spectrometry count,[17],3
same,co-IP mass spectrometry count,[18],2
same,co-IP mass spectrometry count,[19],2
same,"co-IP/MS count, N-term FLAG",[20],2
same,co-IP mass spectrometry count,[21],10
same,co-IP mass spectrometry count,[22],2
same,"co-IP/MS count, N-term FLAG",[23],4
same,co-IP mass spectrometry count,[24],10
same,"co-IP/MS count, N-term FLAG",[25],4
same,"co-IP/MS count, N-term FLAG",[26],3
same,co-IP mass spectrometry count,[27],8
same,co-IP mass spectrometry count,[28],0
same,co-IP mass spectrometry count,[29],10
same,co-IP mass spectrometry count,[30],2
same,"co-IP/MS count, N-term FLAG",[31],11
same,co-IP mass spectrometry count,[32],8
same,"co-IP/MS count, N-term FLAG",[33],4
same,co-IP mass spectrometry count,[34],7
same,"co-IP/MS count, N-term FLAG",[35],4
